This assay concerns the target soy bean agglutinin conjugated to HRP (soy bean), P05046. Put plainly: ELISA; soy bean agglutinin conjugated to HRP exposed to serial dilutions of PFA; colorimetric signal with TMB. For orientation: An ELISA detects its analyte on a solid surface through an enzyme-linked reagent.

Chain of soy bean agglutinin conjugated to HRP (soy bean), P05046 (P05046 33-285): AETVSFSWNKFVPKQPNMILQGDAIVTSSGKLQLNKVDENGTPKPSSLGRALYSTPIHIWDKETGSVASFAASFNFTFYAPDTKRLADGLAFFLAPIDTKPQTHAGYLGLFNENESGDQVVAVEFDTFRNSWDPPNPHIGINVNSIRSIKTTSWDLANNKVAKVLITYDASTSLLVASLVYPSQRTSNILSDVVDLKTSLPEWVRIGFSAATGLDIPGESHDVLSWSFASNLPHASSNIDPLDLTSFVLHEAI

B1: Pseudomonas fluorescens agglutinin (PFA) (natural protein)
chain: MSKYAVANQWGGSSAPWHPGGTWVLGARDNQNVVAIEIKSGDGGKSFTGTMTYAGEGPIGFKAQRTGQNQYNVENQWGGNDAPWHPGGKWVIGGRDNQNVIALSVTSSDGGKNLSGTNTYANEGPIGFRGQIEVSHPQAPF
modifications: not checked
Consider B1, for which the dissociation constant (Kd) (as a rule, the concentration at which binding is half-saturated) was 4 nM.
